Patent US7317091

molecular target: FcγRIIIa on human PBMC effector cells (human) (UniProt P08637); test: cell-based or functional assay

| ADCC EC50, DoHH-2 targets, V158/F158 PBMCs | ADCC Fold Improvement Over WT | ADCC log(EC50), DoHH-2 targets, V158/F158 PBMCs | Substance |
| --- | --- | --- | --- |
| 3 ng/mL | 3.3 fold | 0.49 log(ng/ml) | S239D/I332E alemtuzumab (antibody) |
| 4 ng/mL | – | 0.6 log(ng/ml) | V264I/I332E alemtuzumab (antibody) |

molecular target: human FcγRIIb extracellular region, GST-tagged (human) (UniProt P31994); test: AlphaScreen competition
Sequence (P31994 43-217): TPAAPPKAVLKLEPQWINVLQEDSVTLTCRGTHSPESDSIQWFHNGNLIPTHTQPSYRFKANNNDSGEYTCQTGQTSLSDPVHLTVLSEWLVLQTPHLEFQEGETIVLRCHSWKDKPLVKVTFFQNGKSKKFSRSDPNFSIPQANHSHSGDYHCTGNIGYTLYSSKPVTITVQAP

| FcγRIIb Fold | Substance |
| --- | --- |
| 14.4 fold vs WT | S239D/V264I/I332E trastuzumab (antibody) |
| 19.7 fold vs WT | S239D/I332E trastuzumab (antibody) |
| 5.15 fold vs WT | S239N/S298A/I332E trastuzumab (antibody) |

molecular target: human V158 FcγRIIIa extracellular region fused with glutathione S-transferase (GST) (human) (UniProt P08637); test: AlphaScreen competition
Sequence (P08637 17-208 F176V): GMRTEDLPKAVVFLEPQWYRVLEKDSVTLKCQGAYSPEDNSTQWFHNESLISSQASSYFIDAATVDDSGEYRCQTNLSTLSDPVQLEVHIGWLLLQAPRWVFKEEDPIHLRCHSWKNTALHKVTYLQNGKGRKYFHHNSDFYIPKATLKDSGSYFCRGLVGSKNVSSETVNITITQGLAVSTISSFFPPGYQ

| Substance | FcγRIIIa Fold |
| --- | --- |
| P230A/E233D trastuzumab (antibody) | 0.92 fold vs WT |
| S239D/A330Y/I332E/V240I trastuzumab (antibody) | 28 fold vs WT |
| K326I trastuzumab (antibody) | 1.43 fold vs WT |
| N276S trastuzumab (antibody) | 0.41 fold vs WT |
| S239N/A330Y/I332E trastuzumab (antibody) | 14.2 fold vs WT |
| S239D/A330Y/I332E/L234I trastuzumab (antibody) | 22.4 fold vs WT |
| V323I trastuzumab (antibody) | 0.83 fold vs WT |
| S239D/A330Y/I332E/V264T trastuzumab (antibody) | 17.7 fold vs WT |
| V264I/S298A/I332E trastuzumab (antibody) | 16.5 fold vs WT |
| S324V trastuzumab (antibody) | 1.17 fold vs WT |
| S239D/I332E alemtuzumab (antibody) | 56.1 fold vs WT |
| S239D/A330Y/I332E/L235D trastuzumab (antibody) | 7.04 fold vs WT |
| P230A/E233D/I332E trastuzumab (antibody) | 1.87 fold vs WT |
| N276R trastuzumab (antibody) | 0.66 fold vs WT |
| K274L trastuzumab (antibody) | 1.09 fold vs WT |
| E333H trastuzumab (antibody) | 0.75 fold vs WT |
| S239D/A330Y/I332E/K326E trastuzumab (antibody) | 64.1 fold vs WT |
| Y278W trastuzumab (antibody) | 0.41 fold vs WT |
| S324Y trastuzumab (antibody) | 0.98 fold vs WT |
| S324R trastuzumab (antibody) | 0.71 fold vs WT |
| K274E trastuzumab (antibody) | 6.11 fold vs WT |
| V240I/V266I trastuzumab (antibody) | 1.72 fold vs WT |
| V302I trastuzumab (antibody) | 1.01 fold vs WT |
| K274Y trastuzumab (antibody) | 1.06 fold vs WT |
| E283R trastuzumab (antibody) | 0.67 fold vs WT |
| Y278T trastuzumab (antibody) | 1.87 fold vs WT |
| N276E trastuzumab (antibody) | 0.87 fold vs WT |
| N276Y trastuzumab (antibody) | 0.56 fold vs WT |
| E233D trastuzumab (antibody) | 0.85 fold vs WT |
| K326T trastuzumab (antibody) | 1.88 fold vs WT |

The remaining lines, values ahead:

| FcγRIIIa Fold | Substance |
| --- | --- |
| 36.6 fold vs WT | S239D/V264I/I332E trastuzumab (antibody) |
| 0.9 fold vs WT | Y278E trastuzumab (antibody) |
| 1.56 fold vs WT | T335Y trastuzumab (antibody) |
| 2.58 fold vs WT | T335R trastuzumab (antibody) |
| 1.06 fold vs WT | E318R trastuzumab (antibody) |
| 1.41 fold vs WT | K274T trastuzumab (antibody) |
| 0.79 fold vs WT | V273I trastuzumab (antibody) |
| 1.09 fold vs WT | P230A trastuzumab (antibody) |
| 1.41 fold vs WT | K274R trastuzumab (antibody) |
| 59.1 fold vs WT | S239D/I332E/A330I trastuzumab (antibody) |
| 32.1 fold vs WT | S239N/S298A/I332E trastuzumab (antibody) |
| 0.78 fold vs WT | E333T trastuzumab (antibody) |
| 1.11 fold vs WT | F275W trastuzumab (antibody) |
| 2.79 fold vs WT | T335D trastuzumab (antibody) |
| 12.9 fold vs WT | S239N/A330L/I332E trastuzumab (antibody) |
| 8.7 fold vs WT | E272Y trastuzumab (antibody) |
